Test results taken from patent US8016811B2, “Method for transdermal delivery of permeant substances” (priority 2003, dated 2011).

Test: Serum insulin concentration profile in hairless rats after transdermal patch over micropores or subcutaneous dosing
Type: in vivo
Source text: This example illustrates the ability of the microporation system to mimic the delivery of a subcutaneous infusion of insulin. Hairless rats were purchased and dosed with insulin in accordance with the terms set forth below. The insulin concentration within the serum of the rats was then monitored at given time intervals to provide a blood serum insulin concentration profile.
Three hairless rats were given a 1 U/kg dose of insulin by way of subcutaneous administration. The concentration of insulin in the rats' blood serum was monitored. The average insulin blood serum concentration for the three rats was determined.
Five hairless rats were purchased from Charles River. Jugular vein cannulation was performed the day before the experiment to allow the animals recovering from the surgery.
The experiment was conducted as follows. The rats were anesthetized immediately before the skin treatment, which consisted of cleaning the abdomen side of the rat skin with an alcohol swab. The abdomen was allowed to air dry.
After the abdomen dried, the microporation system was placed longitudinally, and the bottom corners marked, on the cleaned skin site. The cleaned skin site was then microporated using the microporation system. Following microporation, the microporation system was removed and a liquid reservoir patch was placed on the microporated area. The patch was then filled with a 50 IU/ml dose of insulin and a time-zero sample was immediately taken. The remaining samples were taken according to the preset schedule.
After the sample at the 4th hour was taken, the rats were anesthetized to retrieve the donor solution from the liquid reservoir patch. Blood sampling continued until the 8th hour.
Afterward, the test was conducted again, however the patch applied was 2 cm^2 in area. Lastly, the test was performed for a third time, with the patch having a size of 3 cm^2.
Three hairless rats were prepared and tested in accordance with the procedure set forth in Test 1 above. However, for this test, a second generation planar microporation system was used to create the micropores in the abdomen of each rat. In addition, the transdermal patch contained a 50 IU/ml dose of insulin when applied to the microporated area of the skin of each rat.
This test was designed to determine any differences in the types of transdermal patches used to deliver insulin through the micropores. Five hairless rats were prepared and tested in accordance with the procedure set forth in Test 1 above. Following microporation of each rat, an early prototype liquid reservoir patch was applied to two of the rats, while a second generation transdermal patch was used to deliver insulin in the remaining three rats. Each patch contained a 50 IU/ml dose of insulin when applied to the microporated area of the skin of each rat.
A number of rats were prepared in accordance with the procedure set forth in Test 1 above. For those rats that had delivery openings formed on their abdomen, the delivery openings were formed using an early prototype microporation system. Insulin was delivered to the rats using a second generation delivery patch containing the desired concentration of insulin.
The delivery patch was applied to the rats' abdomen without microporation. The rats in this control group were given a […] concentration dose of insulin.
For the other rats in this test, the delivery patch contained insulin in concentrations of 10 IU/ml (6 rats), 25 IU/ml (6 rats), […] or 100 IU/ml (6 rats). The insulin serum concentration was monitored in each of the rats at various intervals of time. The average concentration of the rats for that particular insulin concentration (and whether delivery openings were formed or not) was determined and an insulin serum concentration profile was developed.

insulin
average insulin serum concentration, transdermal through micropores versus subcutaneous (50 IU/ml patch for 4 hours (5 rats) vs 1 U/kg subcutaneous (3 rats), FIG. 5): higher average concentration | duration of higher average insulin serum concentration, transdermal versus subcutaneous (50 IU/ml patch for 4 hours vs 1 U/kg subcutaneous, FIG. 5): longer duration | insulin serum concentration, planar array microporation system versus step and repeat microporation system (50 IU/ml patch for 4 hours, FIG. 7): slightly lower | average insulin serum concentration, change with patch size 1 cm^2 to 2 cm^2 (50 IU/ml patch, 4 rats, FIG. 6): roughly doubled | average insulin serum concentration, change with patch size 2 cm^2 to 3 cm^2 (50 IU/ml patch, 4 rats, FIG. 6): roughly doubled | average insulin concentration, early prototype liquid reservoir patch versus second generation transdermal patch (50 IU/ml patch, FIG. 8): very similar | average insulin serum concentration, 100 IU/ml dose in comparison to other doses (microporated, 100 IU/ml patch, 6 rats, FIG. 9): very high | average insulin serum concentration, 50 IU/ml dose versus 25 IU/ml dose (microporated, FIG. 9): not much difference | average insulin serum concentration, rats without delivery openings (patch on non-microporated abdomen, 3 rats, FIG. 9): very low
